US20060253917A1 (published 2006)

T1: OsCS aa 316-583 (Oryza sativa, UniProt A2Y0X2 316-583)
T1 construct: bait, Gal4 DBD fusion; also called PN19707
T1 sequence: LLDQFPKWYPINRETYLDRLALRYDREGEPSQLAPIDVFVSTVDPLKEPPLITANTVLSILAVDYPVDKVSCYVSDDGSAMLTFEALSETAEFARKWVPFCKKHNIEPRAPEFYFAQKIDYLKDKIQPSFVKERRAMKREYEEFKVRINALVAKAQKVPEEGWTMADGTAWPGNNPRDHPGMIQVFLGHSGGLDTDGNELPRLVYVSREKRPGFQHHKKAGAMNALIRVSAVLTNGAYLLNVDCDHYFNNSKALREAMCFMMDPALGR

B1: OsPN29116 aa 1-169 (other)
chain: GRKPVAAQHYNKGDKDGTSTGSRCTSVAWVPEREGIFVVSHSDGNLYVYDKCKDGNTECTFPAIKDPAQLMISHAKSSKSNPIARWHVCQGSINAISFSPDGAYLATVGRDGYLRVFDFSKEQLIFGGKSYYGALLCCTWSSDGKYLLTGGEDDLVQVWSMDDRKIVAW
notes: prey, AD fusion; also called Novel Protein PN29116, Fragment
B2: OsPN29084 aa 1-253 (other)
chain: ESGIFRQILRGKLDLESDPWPSISDSAKDLVRNMLIRDPTKRFTAHEVLCHPWIVDDAVAPDKPIDSAVLSRLKHFSAMNKLKKMALRVIAESLSEEEIGGLKELFKMIDTDNSGTITYDELKNGLKRVGSDLMEPEIQALMDAADIDNSGTIDYGEFLAATLHMNKLEREENLVSAFTFFDKDGSGFITIDELSQACEQFGLSDVHLEDMIKDVDQNNDGQIDYSEFAAMMRKGNAGGANAGGVTSTGGTGR
notes: prey, AD fusion; also called Novel Protein PN29084, Fragment, Similar to Soybean Calcium-Dependent Protein Kinase
B3: OsPN29117 prey clone -7-151 (other)
chain: MLVQRRDGDTGPAVRLRVSHGASFRDVAVPAHSTFGELKGVLTQATGVEPERQRLFFRGKEKSDNEFLHTAGVKDGAKLLLLEKPAPANVEQRAEPVIMDESMMKACEAVGRVRAEVDRLSAKVCDLEKSVFAGRKIEDKDFVVLTELLMM
notes: prey, AD fusion; clone includes a small portion (-7 to 0) of the 5' untranslated region; also called Novel Protein PN29117
B4: OsPN29076 aa 1-187 (other)
chain: ERDISMVNSYPPSAFDCKGWNSASIFIYESDEEIQCLLDWLRDYDPREKELKDSILQWQRHFCHQSSSPLVDPPISGPKGEQLMELPNTKAAVILEQKYGLQLDQDTSDLPKKRGKKIKLSSEDRTYRCDCLEPVWPSRYHCLTCHETYLISTEFEGHNDGKCSKIHQSPDESRENDEPKVKVTKSD
notes: prey, AD fusion; also called Novel Protein PN29076, Fragment
B5: OsPN29115 aa 1-188 (other)
chain: VSFPYSPRPAALAAGARASRVSPVVVAAGGGHQRLMGSLTNTQGLRFGVVVARFNEIVTNLLLQGALETFERYSVKKENITVLSVPGSFEIPVAAQKLGKSGKFDANFVHWRCAFRGDTTHYGAVANSAASGVLSAGLSAEIPCIFGVLTCDDMDQALNRAGGKAGNKGAEAALTAIEMASLFQHHLA
notes: prey, AD fusion; also called Novel Protein PN29115, Fragment, Similar to A. thaliana 6,7-Dimethyl-8-Ribityllumazine Synthase Precursor
B6: OsPN29077 aa 1-242 (other)
chain: VEAQKKIEAAIRQKGIDENWEAALEHNPEAFARVVMLYVDMEVNGVPLKAFVDSGAQSTIISKSCAERCGLLRLLDQRYRGVAIGVGQSEILGRIHVAPIKIGHVFYPCSFTVLDAPNMEFLFGLDMLRKHQCIIDLKDNVLRVGGGEVSVPFLQEKDIPSHIRDEEKLSKLASLSQGAAGESSTAREKTPDAPPRAPTTGAPAVNPPQPQGGGDFEAKVTKLVELGFDRASVIQALKLFNG
notes: prey, AD fusion; also called Novel Protein PN29077, Fragment, Similar to A. thaliana DNA-Damage Inducible Protein DDI1-Like
B7: OsPN29113 aa 1-92 (other)
chain: CKVSYIDAILGTTVKVPTVDGMVDLKIPSGTQPGTTLVMSKKGVPLLGKSNARGDQLVRVQVEIPKRLSSDERKLIEELANLNKAQTANSRR
notes: prey, AD fusion; also called O. sativa DNAJ Homologue
B8: OsPIP2A aa 123-290 (other)
chain: RKVSLVRAILYIVAQCLGAICGVGLVNAFPNAYFNRYGGGANTLAAGYSKGTGLAAEIIGTFVLVYTVFSATDPKRNARDSHVPVLAPLPIGFAVFMVHLATIPITGTGINPARSIGAAVIFNNEKAWHNHWIFWVGPFVGAAIAAFYHQYILRAGAIKALGSFRSNA
notes: prey, AD fusion; also called PN29098; O. sativa Aquaporin
B9: OsAAB53810 aa 6-145 (other)
chain: IGPWGGNGGSAQDISVPPKKLLGVTIYSSDAIRSIAFNYIGVDGQEYAIGPWGGGESTSTEIKLGSSEQIKEISGTHGPVYDLADIVTYLKIVTSANNTYEAGVPNGKEFSIPLQDSGHVVGFFGRSGTLIDAIGIYVHP
notes: prey, AD fusion; also called PN29086; O. sativa salT Gene Product

target: T1, OsCS aa 316-583; assay: Y2H; output trait library
Method in brief: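 Rice protein fragments, each defined by an amino-acid range, served as bait against rice prey clone libraries in an automated, high-throughput yeast two-hybrid screen supplied by Myriad Genetics Inc. Prey clones that interacted were retrieved from the output trait library. The sequences encoding the retrieved fragments were compared against databases by BLAST analysis to identify the full-length genes. Each value records whether an interaction was detected.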

binding result | Binder
binds | B1
binds | B2
binds | B3
binds | B4
binds | B5
binds | B6
binds | B7
binds | B8
binds | B9
